In article PMC9508819, “Rbp95 binds to 25S rRNA helix H95 and cooperates with the Npa1 complex during early pre-60S particle maturation”:

Assays:
[1] = molecular target: T1, Rbp95 full length (Saccharomyces cerevisiae, UniProt P25617 1-290); assay: EMSA; 5 nM RNA; shift starts at 1.5-fold excess; similar to H95; EMSA: 25 mM Tris-HCl pH 7.5, 75 mM NaCl, 2.5 mM MgCl2, 3.5% glycerol, 0.025% Tween 20, 0.5 mM DTT, 5 nM Cy5-RNA, 30 min at RT; 4-20% TBE gel; settings: protein: recombinant; tags: N-terminal His6; label: 5'-Cy5; hairpin
T1 sequence: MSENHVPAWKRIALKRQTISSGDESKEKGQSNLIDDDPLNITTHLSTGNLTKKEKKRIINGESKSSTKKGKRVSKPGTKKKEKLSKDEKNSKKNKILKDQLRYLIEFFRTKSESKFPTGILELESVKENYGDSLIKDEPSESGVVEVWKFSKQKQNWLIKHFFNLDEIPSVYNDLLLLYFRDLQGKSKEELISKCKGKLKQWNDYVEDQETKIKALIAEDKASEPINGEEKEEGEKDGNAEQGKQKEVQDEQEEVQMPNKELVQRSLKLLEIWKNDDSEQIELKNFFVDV

[2] = molecular target: T2, Rbp95 183-end (Saccharomyces cerevisiae, UniProt P25617 183-290); assay: EMSA; 100- or 500-fold excess; not sufficient for binding; EMSA: 25 mM Tris-HCl pH 7.5, 75 mM NaCl, 2.5 mM MgCl2, 3.5% glycerol, 0.025% Tween 20, 0.5 mM DTT, 5 nM Cy5-RNA, 30 min at RT; 4-20% TBE gel; settings: protein: recombinant; tags: N-terminal His6; label: 5'-Cy5; hairpin
T2 sequence: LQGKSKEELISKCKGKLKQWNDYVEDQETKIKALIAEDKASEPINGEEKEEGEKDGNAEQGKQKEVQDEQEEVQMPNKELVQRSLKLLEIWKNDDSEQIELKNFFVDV

[3] = molecular target: T1, Rbp95 full length; assay: EMSA; 5 nM RNA; shift starts at 1.5-fold excess of Rbp95; EMSA: 25 mM Tris-HCl pH 7.5, 75 mM NaCl, 2.5 mM MgCl2, 3.5% glycerol, 0.025% Tween 20, 0.5 mM DTT, 5 nM Cy5-RNA, 30 min at RT; 4-20% TBE gel; settings: protein: recombinant; tags: N-terminal His6; label: 5'-Cy5; hairpin
[4] = molecular target: T3, Rbp95 1-85 (Saccharomyces cerevisiae, UniProt P25617 1-85); assay: EMSA; 100- or 500-fold excess; strong shift, slightly more protein needed than full length; EMSA: 25 mM Tris-HCl pH 7.5, 75 mM NaCl, 2.5 mM MgCl2, 3.5% glycerol, 0.025% Tween 20, 0.5 mM DTT, 5 nM Cy5-RNA, 30 min at RT; 4-20% TBE gel; settings: protein: recombinant; tags: N-terminal His6; label: 5'-Cy5; hairpin
T3 sequence: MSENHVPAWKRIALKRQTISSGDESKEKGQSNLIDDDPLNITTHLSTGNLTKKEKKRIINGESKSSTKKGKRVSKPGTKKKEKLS

[5] = molecular target: T1, Rbp95 full length; assay: competition; 20-100-fold excess over Cy5-H95; reverts shift; EMSA: 25 mM Tris-HCl pH 7.5, 75 mM NaCl, 2.5 mM MgCl2, 3.5% glycerol, 0.025% Tween 20, 0.5 mM DTT, 5 nM Cy5-RNA, 30 min at RT; 4-20% TBE gel; settings: protein: recombinant; tags: N-terminal His6; hairpin

AAAGGGCGUCAGGGUUGAUAUGAUGCCCUGACGCCC (structured_RNA) [helix H45 (25S rRNA)]: binds [1].

AAAGGGAAUUGAACUUAGUACGAGAGGAACAGUUCAUUUCCC (structured_RNA) [helix H95 (25S rRNA)]: no binding [2]; binds [3]; binds [4].

AAAGGGAAUUGAACUUAGUACGAGAGGAACAGUUCAUUUCCC (structured_RNA) [helix H95 unlabeled competitor]: binds [5].
